We go through one molecule from patent US20090028881A1 (ROCHE PALO ALTO, published 2009).

This test addresses T1, human CCR5 (wild-type) (human, UniProt P51681 1-352).
T1 construct: also called wild-type CCR5
Briefly: alanine scanning epitope mapping. From the text:
Epitope binding is investigated by using alanine scanning according to the method described by W. C. Olson et al. (J. Virol. (1999) 73:4145-55) for epitope mapping. […] 100% epitope binding is defined for wild-type CCR5. A further preferred anti-CCR5 antibody binds to the same epitope as antibody C binds.

T1 sequence (P51681 whole entry): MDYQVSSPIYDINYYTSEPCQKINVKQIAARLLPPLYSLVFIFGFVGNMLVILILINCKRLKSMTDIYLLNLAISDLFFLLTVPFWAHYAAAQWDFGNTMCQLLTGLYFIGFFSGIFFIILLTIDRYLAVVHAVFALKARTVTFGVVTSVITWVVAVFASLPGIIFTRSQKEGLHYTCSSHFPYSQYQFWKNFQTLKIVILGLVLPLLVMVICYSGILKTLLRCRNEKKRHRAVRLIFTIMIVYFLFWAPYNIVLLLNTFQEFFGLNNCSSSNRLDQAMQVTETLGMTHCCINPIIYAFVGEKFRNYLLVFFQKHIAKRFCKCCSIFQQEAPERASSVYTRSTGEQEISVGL

B1: <CCR5>Pz03.1C5 (antibody, V domains shown)
VH: QVQLKQSGPGLVRPSQSLSITCTVSGFPLGIFGVHWVRQSPGKGLEWLGVIWKGGNTDYNAAFMSRLRITKDNSKSQVFFRMNSLQTDDTAIYYCAKVNLADAMDYWGQGTSVIVSS
VL: DIQMTQSPASLSASVGETVTITCRASGNIHGYLAWFQQKQGKSPQLLVYNTKTLAEGVPSRFSGSGSGTQFSLKINSLQPEDFGNYYCQHHYDLPRTFGGGTKLEIKR
notes: also called Antibody C; m<CCR5>Pz03.1C5
For the molecule B1, the binding result is given as “binds”.
